How the values were obtained:
[1] = target: T1, Recombinant CD4 (cluster of differentiation 4) (Homo sapiens (species ), UniProt P01730); assay: SPR; BIACORE T-200; CD4 amine-coupled on CM5 (9695.5 RU); nanobodies 0.4 μM flowed over, 25 °C, HBS-EP pH 7.4, contact 180 s, 30 μL/min; binding level relative to CD4 N = 1; N = 3; conditions: both partners purified
T1 construct: CD4, recombinant, bought from R&D Systems; No catalogue number is printed; a bought soluble CD4 is probably the extracellular domain, possibly tagged (surmise); source: bought: R&D Systems

[2] = target: T2, Recombinant GFP (green fluorescent protein) (UniProt P42212 = GFP); assay: SPR; BIACORE T-200; GFP amine-coupled on CM5 (1189.8 RU); nanobodies 0.4 μM flowed over, 25 °C, HBS-EP pH 7.4, contact 180 s, 30 μL/min; binding level relative to GFP N = 1; N = 3; conditions: both partners purified
T2 construct: green fluorescent protein, recombinant, bought from ProSpec; No catalogue number is printed; source: bought: ProSpec

Binder	relative binding response (CD4N to CD4 = 1) [1]	binding result [2]
chimeric nanobody with CDR3 of GFP-nanobody replaced with that of CD4-nanobody (VHH, everything before CDR3 (scaffold, CDR1, CDR2), as in the VHH of m1; CDR3, as in the VHH of m2; scaffold after CDR3, as in the VHH of m1; also called cCD4 CDR3; not shown: long peptide tag containing two FLAG-tags, C-terminal, kept) VHH: QVQLVESGGALVQPGGSLRLSCAASGFPVNRYSMRWYRQAPGKEREWVAGMSSAGDRSSYEDSVKGRFTISRDDARNTVYLQMNSLKPEDTAVYYCAADTYNSNPARWDGYDFRGQGTQVTVSS	0.1	no binding (tested: 0.4 μM)
chimeric nanobody with CDR2 of GFP-nanobody replaced with that of CD4-nanobody (VHH, everything before CDR2 (scaffold, CDR1), as in the VHH of m1; CDR2, as in the VHH of m2; everything after CDR2 (scaffold, CDR3), as in the VHH of m1; also called cCD4 CDR2; not shown: long peptide tag containing two FLAG-tags, C-terminal, kept) VHH: QVQLVESGGALVQPGGSLRLSCAASGFPVNRYSMRWYRQAPGKEREWVAAVRWSSTGIYYTQYADSVKGRFTISRDDARNTVYLQMNSLKPEDTAVYYCNVNVGFEYWGQGTQVTVSS	0.091	
chimeric nanobody in which all CDRs of GFP-nanobody had been replaced with those of CD4-nanobody (VHH, scaffold before CDR1, as in the VHH of m1; CDR1, as in the VHH of m2; scaffold between CDR1 and CDR2, as in the VHH of m1; CDR2, as in the VHH of m2; scaffold between CDR2 and CDR3, as in the VHH of m1; CDR3, as in the VHH of m2; scaffold after CDR3, as in the VHH of m1; not shown: long peptide tag containing two FLAG-tags, C-terminal, kept) VHH: QVQLVESGGALVQPGGSLRLSCAASGRTFNVMRWYRQAPGKEREWVAAVRWSSTGIYYTQYADSVKGRFTISRDDARNTVYLQMNSLKPEDTAVYYCAADTYNSNPARWDGYDFRGQGTQVTVSS	0.096	
